± gives the uncertainty stated by the source.
B1: Ankyrin-1, residues 1405 to 1484; numbered along this chain, P16157 (parent)
chain: MKMAVISEHLGLSWAELARELQFSVEDINRIRVENPNSLLEQSVALLNLWVIREGQNANMENLYTALQSIDRGEIVNMLE

Variants of: B1
Assay: abundance fitness (aPCA) (normalised: wild type 0, dead -1); higher = more abundant; growth selection in yeast, the domain comes from the species named
Details: Homo sapiens

Variant	abundance fitness
MKMAVISEHLGLSWAELARELQFSVEDINRIRVENPNSLLEQSVALLNLWVIREGQNANMENLYTALQSIDGGEIVNMLE	-0.499 ± 0.065
MKMAVISEHLGLSWAELARELQFSVEDINRIRVENPNSLLEQSVALLNLWVIREGQNANMENLYTALQSIDDGEIVNMLE	-0.683 ± 0.17
MKMAVISEHLGLSWAELARELQFSVEDINRIRVENPNSLLEQSVALLNLWVIREGQNANMENLYTALQSIDCGEIVNMLE	-0.146 ± 0.14
MKMAVISEHLGLSWAELARELQFSVEDINRIRVENPNSLLEQSVALLNLWVIREGQNANMENLYTALQSIDEGEIVNMLE	-0.647 ± 0.11
MKMAVISEHLGLSWAELARELQFSVEDINRIRVENPNSLLEQSVALLNLWVIREGQNANMENLYTALQSIDQGEIVNMLE	-0.275 ± 0.1
MKMAVISEHLGLSWAELARELQFSVEDINRIRVENPNSLLEQSVALLNLWVIREGQNANMENLYTALQSIDIGEIVNMLE	-0.753 ± 0.22
MKMAVISEHLGLSWAELARELQFSVEDINRIRVENPNSLLEQSVALLNLWVIREGQNANMENLYTALQSIDLGEIVNMLE	-0.581 ± 0.087
MKMAVISEHLGLSWAELARELQFSVEDINRIRVENPNSLLEQSVALLNLWVIREGQNANMENLYTALQSIDMGEIVNMLE	-0.356 ± 0.13
MKMAVISEHLGLSWAELARELQFSVEDINRIRVENPNSLLEQSVALLNLWVIREGQNANMENLYTALQSIDHGEIVNMLE	-0.15 ± 0.14
MKMAVISEHLGLSWAELARELQFSVEDINRIRVENPNSLLEQSVALLNLWVIREGQNANMENLYTALQSIDPGEIVNMLE	-0.226 ± 0.13
MKMAVISEHLGLSWAELARELQFSVEDINRIRVENPNSLLEQSVALLNLWVIREGQNANMENLYTALQSIDTGEIVNMLE	-0.797 ± 0.21
MKMAVISEHLGLSWAELARELQFSVEDINRIRVENPNSLLEQSVALLNLWVIREGQNANMENLYTALQSIDSGEIVNMLE	-0.57 ± 0.11
MKMAVISEHLGLSWAELARELQFSVEDINRIRVENPNSLLEQSVALLNLWVIREGQNANMENLYTALQSIDRGEIINMLE	0.079 ± 0.13
MKMAVISEHLGLSWAELARELQFSVEDINRIRVENPNSLLEQSVALLNLWVIREGQNANMENLYTALQSIDRGEIHNMLE	-0.465 ± 0.19
MKMAVISEHLGLSWAELARELQFSVEDINRIRVENPNSLLEQSVALLNLWVIREGQNANMENLYTALQSIDRGEIFNMLE	-0.528 ± 0.27
MKMAVISEHLGLSWAELARELQFSVEDINRIRVENPNSLLEQSVALLNLWVIREGQNANMENLYTALQSIDRGEIPNMLE	-0.234 ± 0.12
MKMAVISEHLGLSWAELARELQFSVEDINRIRVENPNSLLEQSVALLNLWVIREGQNANMENLYTALQSIDRGEIKNMLE	-0.283 ± 0.14

Variant	abundance fitness
MKMAVISEHLGLSWAELARELQFSVEDINRIRVENPNSLLEQSVALLNLWVIREGQNANMENLYTALQSIDRGEIGNMLE	-0.566 ± 0.069
MKMAVISEHLGLSWAELARELQFSVEDINRIRVENPNSLLEQSVALLNLWVIREGQNANMENLYTALQSIDRGEIANMLE	-0.423 ± 0.08
MKMAVISEHLGLSWAELARELQFSVEDINRIRVENPNSLLEQSVALLNLWVIREGQNANMENLYTALQSIDRGEIMNMLE	-0.307 ± 0.097
MKMAVISEHLGLSWAELARELQFSVEDINRIRVENPNSLLEQSVALLNLWVIREGQNANMENLYTALQSIDRGEIENMLE	-0.358 ± 0.094
MKMAVISEHLGLSWAELARELQFSVEDINRIRVENPNSLLEQSVALLNLWVIREGQNANMENLYTALQSIDRGEILNMLE	-0.054 ± 0.06
MKMAVISEHLGLSWAELARELQFSVEDINRIRVENPNSLLEQSVALLNLWVIREGQNANMENLYTALQSIDRGEICNMLE	-0.051 ± 0.095
MKMAVISEHLGLSWAELARELQFSVEDINRIRVENPNSLLEQSVALLNLWVIREGQNANMENLYTALQSIDRGFIVNMLE	-0.741 ± 0.28
MKMAVISEHLGLSWAELARELQFSVEDINRIRVENPNSLLEQSVALLNLWVIREGQNANMENLYTALQSIDRGVIVNMLE	-0.839 ± 0.15
MKMAVISEHLGLSWAELARELQFSVEDINRIRVENPNSLLEQSVALLNLWVIREGQNANMENLYTALQSIDRGHIVNMLE	-0.082 ± 0.18
MKMAVISEHLGLSWAELARELQFSVEDINRIRVENPNSLLEQSVALLNLWVIREGQNANMENLYTALQSIDRGDIVNMLE	0.16 ± 0.16
MKMAVISEHLGLSWAELARELQFSVEDINRIRVENPNSLLEQSVALLNLWVIREGQNANMENLYTALQSIDRGPIVNMLE	-0.264 ± 0.1
MKMAVISEHLGLSWAELARELQFSVEDINRIRVENPNSLLEQSVALLNLWVIREGQNANMENLYTALQSIDRGNIVNMLE	-0.478 ± 0.17
MKMAVISEHLGLSWAELARELQFSVEDINRIRVENPNSLLEQSVALLNLWVIREGQNANMENLYTALQSIDRGCIVNMLE	-0.469 ± 0.16
MKMAVISEHLGLSWAELARELQFSVEDINRIRVENPNSLLEQSVALLNLWVIREGQNANMENLYTALQSIDRGQIVNMLE	-0.45 ± 0.13
MKMAVISEHLGLSWAELARELQFSVEDINRIRVENPNSLLEQSVALLNLWVIREGQNANMENLYTALQSIDRGKIVNMLE	-0.471 ± 0.12
MKMAVISEHLGLSWAELARELQFSVEDINRIRVENPNSLLEQSVALLNLWVIREGQNANMENLYTALQSIDRGIIVNMLE	-0.105 ± 0.19
MKMAVISEHLGLSWAELARELQFSVEDINRIRVENPNSLLEQSVALLNLWVIREGQNANMENLYTALQSIDRGAIVNMLE	-0.364 ± 0.095
